From paper PMC11472046

Tests used:
H3K9me3 mononucleosome = test: native gel or EMSA; varying concentrations of Chp2 with 50 nM mononucleosomes; 20 mM HEPES pH 7.5, 4 mM Tris, 80 mM KCl, 0.1% Igepal CA-630, 0.2 mM EDTA, 2 mM DTT, 10% glycerol; 4°C, 30 min; unbound nucleosome band quantified; apparent affinity (K1/2)
[1] = target: H3K9 methylated (H3K9me) histones in chromatin (S. pombe (endogenous in S. pombe cells)); test: live-cell single-molecule time-lapse imaging; residence times of stationary PAmCherry-tagged molecules in living WT S. pombe; 200-ms integration time with different dark delay times; kdiss from a linear fit that separates photobleaching
[2] = target: H3K9 methylated (H3K9me) histones in chromatin (S. pombe (endogenous in S. pombe cells)); test: live-cell single-molecule time-lapse imaging; as a4, but PAmCherry-Chp2-low in swi6Δ cells
[3] = target: H3K9 methylated (H3K9me) histones in chromatin (S. pombe (endogenous in S. pombe cells)); test: live-cell single-molecule tracking (NOBIAS mobility states, Bayesian Synthetic Likelihood rate inference); PAmCherry-tagged protein photoactivated and tracked in the nucleus of living S. pombe, 40-ms frames, room temperature; Chp2 from the nmt81 promoter, Epe1 from its own or the nmt1 promoter; WT cells, with clr4Δ and swi6Δ cells as comparison
[4] = target: H3K9 methylated (H3K9me) histones in chromatin (S. pombe (endogenous in S. pombe cells)); test: live-cell single-molecule tracking (NOBIAS mobility states, Bayesian Synthetic Likelihood rate inference); as a2, but PAmCherry-Chp2 expressed from the nmt41 promoter (5x higher level)
[5] = target: H3K9 methylated (H3K9me) histones in chromatin (S. pombe (endogenous in S. pombe cells)); test: live-cell single-molecule time-lapse imaging; residence times of stationary PAmCherry-tagged molecules in living WT S. pombe; 200-ms integration time with different dark delay times; kdiss from a linear fit that separates photobleaching; remark: listed apart in the source

Chain of PAmCherry-Chp2 (O42934 whole entry): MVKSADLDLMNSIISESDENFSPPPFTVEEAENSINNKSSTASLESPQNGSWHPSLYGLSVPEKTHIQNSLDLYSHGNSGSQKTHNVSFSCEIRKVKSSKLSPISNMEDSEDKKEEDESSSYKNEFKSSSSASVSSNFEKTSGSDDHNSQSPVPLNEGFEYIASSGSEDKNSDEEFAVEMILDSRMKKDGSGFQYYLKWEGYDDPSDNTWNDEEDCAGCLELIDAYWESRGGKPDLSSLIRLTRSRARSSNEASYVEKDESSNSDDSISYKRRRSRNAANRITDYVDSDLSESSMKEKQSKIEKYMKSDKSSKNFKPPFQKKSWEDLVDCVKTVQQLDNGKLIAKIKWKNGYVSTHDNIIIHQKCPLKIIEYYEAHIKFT
Chain of PAmCherry-Swi6 (P40381 whole entry): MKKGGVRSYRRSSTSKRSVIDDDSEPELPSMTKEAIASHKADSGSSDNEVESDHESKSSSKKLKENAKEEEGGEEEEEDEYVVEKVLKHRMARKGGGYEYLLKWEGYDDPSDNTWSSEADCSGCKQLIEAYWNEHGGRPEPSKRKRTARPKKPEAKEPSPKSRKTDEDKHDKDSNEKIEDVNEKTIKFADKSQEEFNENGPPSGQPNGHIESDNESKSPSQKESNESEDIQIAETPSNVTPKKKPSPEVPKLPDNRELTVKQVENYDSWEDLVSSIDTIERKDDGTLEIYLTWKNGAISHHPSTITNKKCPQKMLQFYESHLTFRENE
Chain of Chp2-WT (recombinant) (O42934 whole entry): as the sequence (O42934 whole entry) above

Row | average dwell time [1] | koff [1] | weight fraction of the low mobility (H3K9me-bound) state [3] | Substance | other results
1 |  |  |  | Chp2-WT (recombinant) (from UniProt O42934 1-380) (natural protein) | specificity for H3K9me over H3K9me0 nucleosomes (H3K9me3 mononucleosome): 2 fold
2 | 3.85 s | 0.26 s⁻¹ | > 92% | PAmCherry-Chp2 (from UniProt O42934 1-380) (natural protein) | average dwell time [2]: 3.72 s; koff [2]: 0.269 s⁻¹; koff [3]: 0.479 s⁻¹; weight fraction of the low mobility (H3K9me-bound) state [4]: > 90%
3 |  |  | 10% | PAmCherry-Chp2 W199A (from UniProt O42934 1-380) (natural protein) | 
4 | 2.2 s | 0.454 s⁻¹ |  | PAmCherry-Swi6 (from UniProt P40381 1-328) (natural protein) | average dwell time [5]: 2.22 s
